These results are taken from patent US20110091971A1, “Differentiation of Pluripotent Stem Cells” (priority 2008, published 2011).

Substitutions are numbered along the chain they refer to.

For this assay, the system named is H1 or H9 human embryonic stem cells. As to the kind of experiment: Activin A bioassay: differentiation of human embryonic stem cells to definitive endoderm, cell number and SOX17 intensity by high content analysis (96-well, four days).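 For Cell Number average: Raw total cell count per well from high content imaging.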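 For Sox 17 Intensity average: total fluorescence of the cell multiplied by cell area.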 The assay is classed as cell-based. The following applies: for Sox 17 Intensity % of control: control = R&D Sys Activin A 100 ng/ml on same plate. A digest of the protocol:
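Read-out was cell count and integrated SOX17 immunofluorescence by high-content imaging, with each well divided by the mean of the 100 ng/ml activin A control. Over the four-day culture, test samples were given in DMEM:F12 with 0.5% FCS plus 20 ng/ml Wnt3a for the first two days and in 2% FCS alone for the last two. Cells were H1 or H9 hESC clusters grown on Matrigel.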

Setting [1] is: supernatant concentration 1x, assay dilution 1:20.
Setting [2] is: supernatant concentration 10x, assay dilution 1:20.
The mark [3] stands for this setting: supernatant concentration 10x, assay dilution 1:40.

B1: ACTN10: activin A variant peptide, SEQ ID 11 (protein)
chain: GLECDGKVNYCCKKQDFVSFKDIGWNDWIIAPSGYHANRCSGLCPSHIAGTSGSSLSFHSTVINHYRMRGHSPFAQMGSCCIPTKLRPMSMLYYDDGQNIIKKDIQNMIVEECGCS
Take B1: under setting [1], the “Cell Number average” value was determined as 7417, the “Sox 17 Intensity average” value worked out at 7.52E+05 and the “Sox 17 Intensity % of control” value amounted to 2.9%. Under setting [2], the “Cell Number average” value was 8942, the “Sox 17 Intensity average” value was 1.08E+06 and the “Sox 17 Intensity % of control” value is 4.2%. Under setting [3], the “Cell Number average” value is 7333, the “Sox 17 Intensity average” value turned out to be 5.59E+05 and the “Sox 17 Intensity % of control” value is reported as 2.2%.

B2: ACTN21: activin A variant peptide, SEQ ID 22 (protein)
chain: B1 chain with D16W, R39K, L43K, Q76N
Turning to B2, under setting [1], the “Cell Number average” value was 8072, the “Sox 17 Intensity average” value is 6.33E+03 and the “Sox 17 Intensity % of control” value is 0.0%. Under setting [2], the “Cell Number average” value is listed as 11102, the “Sox 17 Intensity average” value is 4.89E+05 and the “Sox 17 Intensity % of control” value came out at 1.7%. Under setting [3], the “Cell Number average” value amounted to 10458, the “Sox 17 Intensity average” value worked out at 8.77E+04 and the “Sox 17 Intensity % of control” value is listed as 0.3%.

B3: ACTN28: activin A variant peptide, SEQ ID 29 (protein)
chain: B1 chain with D16L, R39H, L43K, Q76N
With B3, under setting [1], the “Cell Number average” value is 7411, the “Sox 17 Intensity average” value is given as 3.70E+06 and the “Sox 17 Intensity % of control” value was 12.6%. In addition, under setting [2], the “Cell Number average” value is reported as 12587, the “Sox 17 Intensity average” value came to 4.87E+07 and the “Sox 17 Intensity % of control” value amounted to 165.7%. Moreover, under setting [3], the “Cell Number average” value worked out at 10116, the “Sox 17 Intensity average” value was found to be 3.57E+07 and the “Sox 17 Intensity % of control” value worked out at 121.5%.

B4: ACTN17: activin A variant peptide, SEQ ID 18 (protein)
chain: B1 chain with R39K, S41G, L43K, A75S, Q76D, S79A, I82V
In the case of B4, under setting [1], the “Cell Number average” value is on record as 10154, the “Sox 17 Intensity average” value turned out to be 1.21E+06 and the “Sox 17 Intensity % of control” value stood at 4.7%. Under setting [2], the “Cell Number average” value was determined as 12596, the “Sox 17 Intensity average” value is given as 2.83E+05 and the “Sox 17 Intensity % of control” value is 1.1%. Also, under setting [3], the “Cell Number average” value turned out to be 10807, the “Sox 17 Intensity average” value came to 4.38E+05 and the “Sox 17 Intensity % of control” value stood at 1.7%.

B5: ACTN32: activin A variant peptide, SEQ ID 33 (protein)
chain: B1 chain with Y10L, S41G, L43K, A75S, Q76N
As for B5, under setting [1], the “Cell Number average” value is listed as 16166, the “Sox 17 Intensity average” value came out at 9.11E+04 and the “Sox 17 Intensity % of control” value is given as 0.3%. Moreover, under setting [2], the “Cell Number average” value is given as 14330, the “Sox 17 Intensity average” value is reported as 3.97E+04 and the “Sox 17 Intensity % of control” value is reported as 0.1%. Under setting [3], the “Cell Number average” value was found to be 11619, the “Sox 17 Intensity average” value is recorded as 3.43E+05 and the “Sox 17 Intensity % of control” value is 1.2%.

B6: ACTN19: activin A variant peptide, SEQ ID 20 (protein)
chain: B1 chain with Y10L, R39K, S41G, L43K, Q76N
For B6, under setting [1], the “Cell Number average” value stood at 11017, the “Sox 17 Intensity average” value is reported as 4.09E+04 and the “Sox 17 Intensity % of control” value came out at 0.1%. Under setting [2], the “Cell Number average” value is reported as 11587, the “Sox 17 Intensity average” value amounted to 3.96E+04 and the “Sox 17 Intensity % of control” value was 0.1%. Under setting [3], the “Cell Number average” value amounted to 12549, the “Sox 17 Intensity average” value is 4.86E+03 and the “Sox 17 Intensity % of control” value was found to be 0.0%.

B7: ACTN22: activin A variant peptide, SEQ ID 23 (protein)
chain: B1 chain with Y10L, S41D, Q76L, S79A
For the molecule B7, under setting [1], the “Cell Number average” value is on record as 9909, the “Sox 17 Intensity average” value was determined as 1.32E+05 and the “Sox 17 Intensity % of control” value was found to be 0.4%. In addition, under setting [2], the “Cell Number average” value is 8745, the “Sox 17 Intensity average” value amounted to 3.69E+05 and the “Sox 17 Intensity % of control” value is reported as 1.3%. Under setting [3], the “Cell Number average” value is given as 9568, the “Sox 17 Intensity average” value is on record as 3.76E+05 and the “Sox 17 Intensity % of control” value stood at 1.3%.

B8: ACTN23: activin A variant peptide, SEQ ID 24 (protein)
chain: B1 chain with R39K, S41D, L43K, A75S, Q76D
Turning to B8, under setting [1], the “Cell Number average” value stood at 6831, the “Sox 17 Intensity average” value was found to be 2.89E+04 and the “Sox 17 Intensity % of control” value was determined as 0.1%. Under setting [2], the “Cell Number average” value worked out at 10482, the “Sox 17 Intensity average” value came to 1.63E+05 and the “Sox 17 Intensity % of control” value was found to be 0.6%. Besides, under setting [3], the “Cell Number average” value was 8184, the “Sox 17 Intensity average” value is given as 1.47E+05 and the “Sox 17 Intensity % of control” value turned out to be 0.5%.

B9: ACTN18: activin A variant peptide, SEQ ID 19 (protein)
chain: B1 chain with D16N, R39K, L43K, A75S, Q76D, S79A
Regarding B9, under setting [1], the “Cell Number average” value is on record as 6078, the “Sox 17 Intensity average” value was 5.68E+05 and the “Sox 17 Intensity % of control” value was 2.2%. In addition, under setting [2], the “Cell Number average” value is listed as 9676, the “Sox 17 Intensity average” value worked out at 1.22E+06 and the “Sox 17 Intensity % of control” value is 4.7%. In addition, under setting [3], the “Cell Number average” value is given as 11683, the “Sox 17 Intensity average” value worked out at 2.22E+05 and the “Sox 17 Intensity % of control” value came out at 0.9%.

B10: ACTN20: activin A variant peptide, SEQ ID 21 (protein)
chain: B1 chain with Y10L, D16N, R39K, S41G, S79A
In the case of B10, the “Cell Number average” value is, setting by setting: under setting [1], 9000; under setting [2], 10217; under setting [3], 12284. The “Sox 17 Intensity average” value came out at 1.26E+04 under setting [1], 1.52E+05 under setting [2] and 9.03E+03 under setting [3]. For the same molecule, the “Sox 17 Intensity % of control” value by setting is: under setting [1], 0.0%; under setting [2], 0.5%; under setting [3], 0.0%.

B11: ACTN11: activin A variant peptide, SEQ ID 12 (protein)
chain: B1 chain with Y10L, D16L, R39H, S79A
As to B11, under setting [1], the “Cell Number average” value was determined as 5239, the “Sox 17 Intensity average” value stood at 3.47E+06 and the “Sox 17 Intensity % of control” value turned out to be 13.4%. Under setting [2], the “Cell Number average” value was 10321, the “Sox 17 Intensity average” value is 4.06E+07 and the “Sox 17 Intensity % of control” value turned out to be 156.8%. For the same molecule, under setting [3], the “Cell Number average” value amounted to 9493, the “Sox 17 Intensity average” value stood at 2.79E+07 and the “Sox 17 Intensity % of control” value worked out at 107.8%.

B12: ACTN12: activin A variant peptide, SEQ ID 13 (protein)
chain: B1 chain with D16N, R39E, A75S
With B12, the “Cell Number average” value was found to be 5420 under setting [1], 6633 under setting [2] and 6317 under setting [3]. Also, the “Sox 17 Intensity average” value is, setting by setting: under setting [1], 1.10E+06; under setting [2], 7.65E+06; under setting [3], 2.43E+06. In addition, the “Sox 17 Intensity % of control” value runs as follows: under setting [1], 4.3%; under setting [2], 29.6%; under setting [3], 9.4%.

B13: ACTN14: activin A variant peptide, SEQ ID 15 (protein)
chain: B1 chain with Y10L, D16H, S41D, I82V
For the molecule B13, under setting [1], the “Cell Number average” value was 4968, the “Sox 17 Intensity average” value is 1.50E+06 and the “Sox 17 Intensity % of control” value amounted to 5.8%. In addition, under setting [2], the “Cell Number average” value worked out at 6278, the “Sox 17 Intensity average” value was determined as 3.66E+06 and the “Sox 17 Intensity % of control” value is on record as 14.1%. Under setting [3], the “Cell Number average” value stood at 5584, the “Sox 17 Intensity average” value was 4.73E+06 and the “Sox 17 Intensity % of control” value came out at 18.3%.
